In patent publication US20220281976A1 (Alector, published 2022):

T1: mouse CD33 Fc fusion protein (mouse, UniProt Q63994 18-240, limits assumed)
T1 construct: also called mCD33-Fc
T1 sequence: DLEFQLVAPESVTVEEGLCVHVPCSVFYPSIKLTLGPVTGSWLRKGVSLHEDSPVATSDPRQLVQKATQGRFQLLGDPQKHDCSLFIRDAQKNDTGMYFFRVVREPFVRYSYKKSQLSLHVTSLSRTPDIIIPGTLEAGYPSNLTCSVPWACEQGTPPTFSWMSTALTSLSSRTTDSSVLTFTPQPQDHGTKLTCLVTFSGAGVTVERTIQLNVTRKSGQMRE


What was measured:
[1] = biological target: T2, human monomeric His tagged CD33 protein (human, UniProt P20138 18-259); assay: ForteBio BLI or MSD-SET, IgG, monomeric antigen;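 further: BLI: antibodies captured on AHQ sensors, 100 nM antigen association 5 min, dissociation 5 min, 1:1 fit. MSD-SET: antigen fixed at 50 pM, antibody titrated, quadratic fit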
T2 construct: also called hCD33-His
T2 sequence (P20138 18-259 limits assumed): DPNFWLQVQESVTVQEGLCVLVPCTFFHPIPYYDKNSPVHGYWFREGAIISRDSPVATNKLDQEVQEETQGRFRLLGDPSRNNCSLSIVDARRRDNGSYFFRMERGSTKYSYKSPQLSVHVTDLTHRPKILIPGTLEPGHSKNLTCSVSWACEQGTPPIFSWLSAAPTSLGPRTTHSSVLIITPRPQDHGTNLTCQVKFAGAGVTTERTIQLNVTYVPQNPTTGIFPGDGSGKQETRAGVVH
Method: The binding affinity of each anti-CD33 antibody was determined by measuring their KD by ForteBio or MSD-SET. […] Briefly, ForteBio affinity measurements were performed by loading IgGs on-line onto AHQ sensors. Sensors were equilibrated off-line in assay buffer for 30 min and then monitored on-line for 60 seconds for baseline establishment. Sensors with loaded IgGs were exposed to 100 nM antigen for 5 minutes, then transferred to assay buffer for 5 min for off-rate measurement. Kinetics were analyzed using the 1:1 binding model.
Solution equilibrium titrations (SET) were performed in PBS+0.1% IgG-Free BSA (PBSF) with antigen held constant at 50 pM and incubated with 3-to 5-fold serial dilutions of antibody starting at 10 nM. Antibodies (20 nM in PBS) were coated onto standard bind MSD-ECL plates overnight at 4° C. or at room temperature for 30 min. Plates were then blocked for 30 min with shaking at 700 rpm, followed by three washes with wash buffer (PBSF+0.05% Tween 20). SET samples were applied and incubated on the plates for 150s with shaking at 700 rpm followed by one wash. Antigen captured on a plate was detected with 250 ng/mL sulfotag-labeled streptavidin in PBSF by incubation on the plate for 3 min. The plates were washed three times with wash buffer and then read on the MSD Sector Imager 2400 instrument using 1× Read Buffer T with surfactant. The percent free antigen was plotted as a function of titrated antibody in Prism and fit to a quadratic equation to extract the KD. To improve throughput, liquid handling robots were used throughout MSD-SET experiments, including SET sample preparation.

[2] = biological target: T3, human CD33 Fc fusion protein (human, UniProt P20138 18-259); assay: RBC adhesion to plate-bound CD33-Fc; antibody 0.5 ug/ml;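 further: Plate-coated CD33-Fc preincubated 1 h with antibody, then red blood cells added for 1 h at room temperature, adherent cells lysed and quantified via peroxidase activity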
T3 construct: also called hCD33-Fc; human CD33/Fc chimera (R&D Systems)
T3 sequence (P20138 18-259 limits assumed): as above
Method: Briefly, 5 ug/ml CD33-Fc was coated overnight at RT in 96 well Immunolon plates, then washed with PBS, blocked for one hour with binding buffer (PBS containing %0.25 BSA 1 mM CaCl₂). CD33 antibodies (0.5 ug/ml or 1.0 ug/ml) or Fabs (25 ug/ml) were bound for one hour at RT with gentle rocking. After removal of unbound antibody, red blood cells were added to each well at a concentration of 3.0×10⁶ cells per ml and incubated at RT for one hour. Unbound RBCs were then carefully washed off 3× with PBS, and water was added to each well for hypotonic lysis of bound RBCs. The plate was transferred to −80° C. for 10 minutes, followed by 37° C. for 15 minutes. Bound RBCs were detected by peroxidase activity, followed by 2N sulfuric acid to stop the reaction.

human CD33 [3] = biological target: T4, human CD33 (human, UniProt P20138 18-364); assay: flow cytometry, human primary monocytes; parameters: reference not given here;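 further: binding of anti-CD33 antibodies at 10 ug/ml to human primary monocytes, 1 h on ice, detected by PE-labelled secondary antibody, flow cytometry readout as mean fluorescence intensity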
T4 construct: CD33 on human primary dendritic cells, macrophages, monocytes and T cells and on CHO cells expressing recombinant human CD33; also called Siglec-3; hCD33
T4 sequence (P20138 18-364): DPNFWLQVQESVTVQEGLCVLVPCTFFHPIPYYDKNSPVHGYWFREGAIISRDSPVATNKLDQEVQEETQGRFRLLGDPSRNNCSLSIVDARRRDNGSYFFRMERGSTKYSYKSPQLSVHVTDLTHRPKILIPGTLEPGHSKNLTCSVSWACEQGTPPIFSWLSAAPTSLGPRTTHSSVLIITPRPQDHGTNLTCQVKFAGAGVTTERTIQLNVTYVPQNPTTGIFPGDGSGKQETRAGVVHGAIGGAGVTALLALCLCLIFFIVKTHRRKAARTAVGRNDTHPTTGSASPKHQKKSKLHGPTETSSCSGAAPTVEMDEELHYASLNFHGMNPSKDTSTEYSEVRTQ

human CD33 [4] = biological target: T4, human CD33; assay: flow cytometry, human primary macrophages;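 further: binding of CD33 antibodies at 10 µg/ml to human primary macrophages, 1 h on ice, detected with PE-labelled secondary antibody by flow cytometry, reported as MFI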
human CD33 [5] = biological target: T4, human CD33; assay: flow cytometry, human primary dendritic cells;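 further: binding of anti-CD33 antibodies (10 ug/ml, 1 h on ice) to human primary dendritic cells, detected with a PE-labelled secondary antibody, reported as flow cytometry MFI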
Method: Initial characterization of CD33 antibodies involved determining their ability to bind CD33 expressed on a CHO cell line, on human primary monocytes, human primary macrophages, human primary dendritic cells, and on human primary T cells. Cells were harvested, plated at 10⁶/ml in a 96 well plate, and incubated in 100 ul PBS containing 2% FBS, 2 mM EDTA and 10 ug/ml Mab and Fc blocking reagent for 1 hour in ice. Cells were washed twice and incubated in 100 ul PBS containing 2% FBS, 2 mM EDTA and 5 ug/ml PE-conjugated secondary antibody for 30 minutes on ice. Cells were washed twice in cold PBS and analyze by flow cytometry on a BD FACS Canto. Data analysis and calculation of MFI values was performed with FlowJo (TreeStar) software version 10.0.7.

[6] = biological target: T1, mouse CD33 Fc fusion protein; assay: ForteBio BLI or MSD-SET
human CD33 [7] = biological target: T4, human CD33; assay: flow cytometry, human primary T cells;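 further: binding of anti-CD33 antibodies at 10 ug/ml to human primary T cells, 1 h on ice, detected with PE-labelled secondary antibody, read as flow cytometry MFI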
[8] = biological target: T3, human CD33 Fc fusion protein; assay: RBC adhesion to plate-bound CD33-Fc; antibody 1.0 ug/ml;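 further: red blood cells adhering to plate-coated CD33-Fc after 1 h antibody pretreatment, then 1 h at room temperature, bound cells read as peroxidase activity after lysis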
human CD33 [9] = biological target: T4, human CD33; assay: cell-based or functional assay
[10] = biological target: T3, human CD33 Fc fusion protein; assay: ForteBio BLI or MSD-SET, IgG, avid;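 further: Anti-CD33 IgG affinity by BLI, IgG captured on AHQ sensors with antigen in solution and a one-to-one kinetic fit, or by MSD solution equilibrium titration with quadratic fit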

Row | Kd [1] [µM] | Percent RBC Binding to CD33 [2] [%] | Monocyte MFI (human CD33 [3]) | Macrophage MFI (human CD33 [4]) | DC MFI (human CD33 [5]) | binding result [6] | T cell MFI (human CD33 [7]) | Percent RBC Binding to CD33 [8] [%] | Percent CD33 Surface Expression, DC % CD33 (human CD33 [9]) [%] | Percent CD33 Surface Expression, Macrophage % CD33 (human CD33 [9]) [%] | Percent CD33 Surface Expression, Monocyte % CD33 (human CD33 [9]) [%] | Kd [10] [µM] | Binder
1 | 0.0237 | 29.8 | 94 | 573 | 1050 | no binding (tested: 100 nM) | 210 | 13.7 | 22.9 | 55.9 | 24.9 |  | C-73 (antibody, V domains shown, human IgG1) VH: QVQLVESGGGVVQPGRSLRLSCAASGFTFSSYGMHWVRQAPGKGLEWVAVIWYDGSNKYYADSVKGRFTISRDNSKNTLYLQMNSLRAEDTAVYYCARGTNAYGTPRDFDLWGRGTLVTVSS VL: DIQMTQSPSSLSASVGDRVTITCRASQSISSYLNWYQQKPGKAPKLLIYAASSLQSGVPSRFSGSGSGTDFTLTISSLQPEDFATYYCQQLSDTPITFGGGTKVEIK
2 | 0.0593 | 98.7 | 646 | 409 | 70 | no binding (tested: 100 nM) | 80.6 | 108 | 79.6 |  | 87.8 |  | C-83 (antibody, V domains shown, human IgG1) VH: not shown VL: DIQLTQSPSSVSASVGDRVTITCRASQGISSWLAWYQQKPGKAPKLLIYAASSLQSGVPSRFSGSGSGTDFTLTISSLQPEDFATYYCQQAYALPPTFGGGTKVEIK
3 |  | 17.1 | 117 | 872 | 1200 | no binding (tested: 100 nM) | 28.8 | 5.66 | 56.8 |  | 75.6 | 0.00401 | C-63 (antibody, V domains shown, human IgG1) VH: QVQLVQSGAEVKKPGSSVKVSCKASGGTFSSYAISWVRQAPGQGLEWMGSIIPIFGTANYAQKFQGRVTITADESTSTAYMELSSLRSEDTAVYYCARDLGGQYYGSHHYWGQGTLVTVSS VL: EIVLTQSPATLSVSPGERATLSCRASQSVGSNLAWYQQKPGQAPRLLIYGASTRATGIPARFSGSGSGTEFTLTISSLQSEDFAVYYCQQYNAWPLTFGGGTKVEIK
4 | 0.0127 | 21.2 | 74 | 617 | 1130 | no binding (tested: 100 nM) | 269 | 6.65 | 27.8 | 52.2 | 44.9 |  | C-42 (antibody, V domains shown, human IgG1) VH: QLQLQESGPGLVKPSETLSLTCTVSGGSISSSSYYWGWIRQPPGKGLEWIGSIYYSGSTYYNPSLKSRVTISVDTSKNQFSLKLSSVTAADTAVYYCAREPIYRRGMDVWGQGTTVTVSS VL: EIVLTQSPATLSLSPGERATLSCRASQSVSSYLAWYQQKPGQAPRLLIYDASNRATGIPARFSGSGSGTDFTLTISSLEPEDFAVYYCQQFSNYPTFGGGTKVEIK
5 | 0.1 | 44 | 107 | 729 | 892 | no binding (tested: 100 nM) | 772 | 19.3 | 77.4 |  | 59.9 |  | C-66 (antibody, V domains shown, human IgG1) VH: QLQLQESGPGLVKPSETLSLTCTVSGGSISSSSYYWGWIRQPPGKGLEWIGSIYYSGSTYYNPSLKSRVTISVDTSKNQFSLKLSSVTAADTAVYYCAREVGYPYGMDVWGQGTTVTVSS VL: DIQLTQSPSSLSASVGDRVTITCQASQDISNFLNWYQQKPGKAPKLLIYDASNLETGVPSRFSGSGSGTDFTFTISSLQPEDIATYYCQQYSDLPTFGGGTKVEIK
6 | 0.0322 | 23 | 84 | 652 | 938 | no binding (tested: 100 nM) | 192 | 7.46 | 47.5 | 68.8 | 53.9 |  | C-70 (antibody, V domains shown, human IgG1) VH: QVQLVESGGGVVQPGRSLRLSCAASGFTFSTYGMHWVRQAPGKGLEWVAVIWYDGSNKYYADSVKGRFTISRDNSKNTLYLQMNSLRAEDTAVYYCARGQHGTSRVDFDYWGQGTLVTVSS VL: not shown

Further lines, the binder ahead of its results:

Row | Binder | Kd [1] [µM] | Percent RBC Binding to CD33 [2] [%] | Monocyte MFI (human CD33 [3]) | Macrophage MFI (human CD33 [4]) | DC MFI (human CD33 [5]) | binding result [6] | T cell MFI (human CD33 [7]) | Percent RBC Binding to CD33 [8] [%] | Percent CD33 Surface Expression, DC % CD33 (human CD33 [9]) [%] | Percent CD33 Surface Expression, Macrophage % CD33 (human CD33 [9]) [%] | Percent CD33 Surface Expression, Monocyte % CD33 (human CD33 [9]) [%] | Kd [10] [µM]
7 | C-18 (antibody, V domains shown, human IgG1) VH: not shown VL: DIQMTQSPSSVSASVGDRVTITCRASQGISSWLAWYQQKPGKAPKLLIYAASSLQSGVPSRFSGSGSGTDFTLTISSLQPEDFATYYCQQANYHPLTFGGGTKVEIK | 0.0161 | 111 | 189 | 981 | 1190 | no binding (tested: 100 nM) | 43.4 | 119 | 80 |  | 84.8 | 
8 | C-13 (antibody, V domains shown, human IgG1) VH: EVQLVESGGGLVQPGGSLRLSCAASGFTFSSYWMSWVRQAPGKGLEWVANIKSDGSEKYYVDSVKGRFTISRDNAKNSLYLQMNSLRAEDTAVYYCARGPSYLASGAFDLWGRGTLVTVSS VL: EIVLTQSPATLSLSPGERATLSCRASQSVSSYLAWYQQKPGQAPRLLIYDASNRATGIPARFSGSGSGTDFTLTISSLEPEDFAVYYCQQAYVVPPRTFGGGTKVEIK | 0.00997 | 41.3 | 181 | 838 | 1740 | no binding (tested: 100 nM) | 205 | 15.3 | 21.8 | 63.1 | 48 | 
9 | C-19 (antibody, V domains shown, human IgG1) VH: QLQLQESGPGLVKPSETLSLTCTVSGGSISSSSYAWGWIRQPPGKGLEWIGSIYYSGSTYYNPSLKSRVTISVDTSKNQFSLKLSSVTAADTAVYYCARVGYTRPYGMDVWGQGTTVTVSS VL: DIQMTQSPSSVSASVGDRVTITCRASQGISSWLAWYQQKPGKAPKLLIYAASSLQSGVPSRFSGSGSGTDFTLTISSLQPEDFATYYCQQINAHPTFGGGTKVEIK | 0.00182 | 19.5 | 182 | 887 | 1700 | no binding (tested: 100 nM) | 470 | 14.3 | 11.6 | 58.7 | 28.2 | 
10 | C-35 (antibody, V domains shown, human IgG1) VH: QLQLQESGPGLVKPSETLSLTCTVSGGSISSSSYAWGWIRQPPGKGLEWIGNIYYSGSTYYNPSLKSRVTISVDTSKNQFSLKLSSVTAADTAVYYCARAGYRSPSGFDYWGQGTLVTVSS VL: DIQMTQSPSSVSASVGDRVTITCRASQGISSWLAWYQQKPGKAPKLLIYAASNLQSGVPSRFSGSGSGTDFTLTISSLQPEDFATYYCQQGNAHPTFGGGTKVEIK | 0.00426 | 16.6 | 160 | 920 | 1320 | no binding (tested: 100 nM) | 186 | 7.18 | 18.7 | 51.2 | 31.9 | 
11 | C-36 (antibody, V domains shown, human IgG1) VH: EVQLVESGGGLVQPGGSLRLSCAASGFTFSSYWMSWVRQAPGKGLEWVANIKQDGSEKYYVDSVKGRFTISRDNAKNSLYLQMNSLRAEDTAVYYCARDGQYYPAYGMDVWGQGTTVTVSS VL: EIVMTQSPATLSVSPGERATLSCRASQSVSSNLAWYQQKPGQAPRLLIYGASTRATGIPARFSGSGSGTEFTLTISSLQSEDFAVYYCQQYFDLPTFGGGTKVEIK | 0.00235 | 13.4 | 144 | 853 | 1160 | no binding (tested: 100 nM) | 228 | 16.1 | 21.2 | 36.3 | 46.6 | 
